These are literature values, as cited in paper PMC6963778.

For the data set, the target named is RNF4 (Homo sapiens) (UniProt P78317).

Take RNF4 (from UniProt P78317): the Kd was 0.18 µM.

Usually Kd stands for the constant that tells how readily two partners part at equilibrium.
